From US20250289897A1, “LEPTIN RECEPTOR AGONISTIC ANTIBODY AS MONO OR COMBO THERAPIES TO TREAT OBESITY” (ELI LILLY AND COMPANY, priority 2024, published 2025)
Marks after values point to notes of the source that are not given here.

Target: T1, mutant LEPR-A409E (Homo sapiens, UniProt P48357, A409E)
T1 construct: expressed in transfected cells; host or cells: HEK293
T1 sequence (P48357 22-1165 A409E): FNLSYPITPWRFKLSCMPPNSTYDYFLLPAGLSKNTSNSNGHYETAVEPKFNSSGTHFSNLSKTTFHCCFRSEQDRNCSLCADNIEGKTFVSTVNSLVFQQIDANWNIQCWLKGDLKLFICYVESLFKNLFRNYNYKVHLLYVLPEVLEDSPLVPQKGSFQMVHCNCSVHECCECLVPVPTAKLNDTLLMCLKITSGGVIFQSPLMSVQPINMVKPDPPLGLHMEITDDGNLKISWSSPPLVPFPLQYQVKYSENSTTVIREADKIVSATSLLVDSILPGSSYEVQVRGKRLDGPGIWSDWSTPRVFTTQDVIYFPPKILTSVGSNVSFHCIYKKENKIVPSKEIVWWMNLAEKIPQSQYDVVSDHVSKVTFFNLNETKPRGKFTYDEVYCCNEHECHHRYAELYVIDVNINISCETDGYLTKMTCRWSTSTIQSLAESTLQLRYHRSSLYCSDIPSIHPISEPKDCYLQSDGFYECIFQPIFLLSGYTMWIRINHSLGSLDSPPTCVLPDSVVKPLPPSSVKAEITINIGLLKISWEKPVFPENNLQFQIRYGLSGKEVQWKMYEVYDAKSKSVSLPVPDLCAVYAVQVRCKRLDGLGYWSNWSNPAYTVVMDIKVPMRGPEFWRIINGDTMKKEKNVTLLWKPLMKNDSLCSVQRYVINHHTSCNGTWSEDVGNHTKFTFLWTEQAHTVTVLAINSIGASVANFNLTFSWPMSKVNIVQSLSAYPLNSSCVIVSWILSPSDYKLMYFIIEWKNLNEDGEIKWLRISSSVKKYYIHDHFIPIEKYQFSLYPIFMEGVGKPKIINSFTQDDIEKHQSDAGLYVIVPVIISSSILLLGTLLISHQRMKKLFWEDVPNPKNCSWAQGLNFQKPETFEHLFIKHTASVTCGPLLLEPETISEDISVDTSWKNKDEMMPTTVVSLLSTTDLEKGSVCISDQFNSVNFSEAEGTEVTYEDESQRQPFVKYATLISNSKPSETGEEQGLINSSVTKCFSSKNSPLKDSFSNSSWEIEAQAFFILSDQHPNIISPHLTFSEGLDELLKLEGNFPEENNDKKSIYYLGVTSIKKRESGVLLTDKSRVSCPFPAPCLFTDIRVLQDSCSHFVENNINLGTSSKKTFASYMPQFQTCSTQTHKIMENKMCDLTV
Test: STAT3-Luciferase reporter assay in HEK293 cells that express hLEPR-A409E
Type: cell-based
Procedure: Missense mutation A409E in LEPR gene was associated with autosomal recessive early onset of obesity in human (Farooqi et al., 2007, N Engl J Med 356 (3): 237-247). […] To test whether the anti-LEPR antibodies can activate these mutant human LEPR receptors, the STAT3-Luciferase reporter assay was established using HEK293 cells that express hLEPR-A409E. These cells were cultured in growth medium DMEM/F12 (Gibco, #12430-054), 10% fetal bovine serum (FBS, Gibco, #10082-147), antibiotics (Gibco, #15240-062), Sodium Pyruvate (Gibco, #11360-070) and GlutaMax supplement (Gibco, #35050-061) in the presence of drug selection 250 μg/mL of Hygromycin (Invitrogen, #10687010) and 800 μg/mL of Geneticin (Corning, #30-234-C1).
Before plating the cells for luciferase assays, the poly-D-Lysine coated 96-well plates (Corning Inc, Bio Coat, #354651, Poly-D-Lysing coated) were rinsed once with phosphate buffered solution (PBS) and once by plating medium. Then, 20,000 to 24,000 STAT3-Luciferase reporter cells were seeded onto the poly-D-lysine 96-well plates in 100 μL/well plating medium consist of DMEM/F12 (3:1, Gibco, #93-0152DK), 10% fetal bovine serum (FBS, Gibco, #10082-147), 1x GlutaMax supplement (Gibco, #35050061) 20 mM HEPES (Gibco, #15630-080) and antibiotics (Gibco, 15240-062). After overnight culture at 37°° C. with 5% CO2, the culture medium was changed to 75 μL assay medium containing OPTI-MEM (Gibco, #31985-070) with 1% BSA (BSA Fraction V (7.5%), Gibco, #15260-037), 0.1% dialyzed fetal bovine serum (FBS, Gibco, #26400-044) for 1 hour at 37° C. with 5% CO2. Test articles were diluted into 25 μL assay medium and were added to each well. Cells were further incubated for 20 hours at 37° C. with 5% CO2. Cell lysing and One-Glo luciferase substrate solution (Promega, #E6120) were then added to each well, and relative luciferase units (RLUs) were measured on a ClarioStar plate reader. The concentration response curves were then plotted as raw RLU readings to the function of log drug concentrations. EC50 was calculated using GraphPad Prism software.

- Bottom (RLU) (LEPR-A409E STAT3-luciferase): 451.8 RLU
- Hill Slope (LEPR-A409E STAT3-luciferase): 0.2011
- Top (RLU) (LEPR-A409E, top of curve projected by GraphPad Prism software): 259289* RLU
- activation of LEPR-A409E (STAT3-luciferase): did not activate
Substance: human leptin: recombinant human leptin protein (SEQ ID NO:27), positive control
